# Molecular target: GST-Rac1^QP (UniProt P63000)
# Assay: pull-down
substance,measurement,value
WRC^Y967A (from UniProt Q7L576 1-1253; Q9Y2A7 1-1128; Q92558 1-230; Q9NYB9 1-158; Q8WUW1 1-75) (complex),Kd,2000 nM

# Source: paper doi:10.1101/2022.05.13.491857
